Results from article PMC4072508, “Genome-Wide Prediction and Validation of Peptides That Bind Human Prosurvival Bcl-2 Proteins” (PLoS Computational Biology, 2014).
“And” between values parts separate entries of the source, which are not always exact repeats. Equal values may be shown once. Residues, ends and D or L forms follow the SMILES beside them. *: point of attachment. 5FAM = O=C1OC2(c3ccc(O)cc3Oc3cc(O)ccc32)c2ccc(C(=O)*)cc21

How the values were obtained:
Mcl-1 = target: T1, Mcl-1 (Homo sapiens, UniProt Q07820); assay: LUMIER full-length protein interaction; assay type: binding; settings: LUMIER results for Mcl-1, Z-score relative to Gaussian fit of the data; for z-score 1.2: experiment 1, duplicate 2; for z-score 2.1: experiment 2, duplicate 1; for z-score 2.2: experiment 2, duplicate 2
T1 construct: myc-Mcl-1 SPOT array & FP; made in house
T1 sequence (Q07820 with tags, fused parts or gaps): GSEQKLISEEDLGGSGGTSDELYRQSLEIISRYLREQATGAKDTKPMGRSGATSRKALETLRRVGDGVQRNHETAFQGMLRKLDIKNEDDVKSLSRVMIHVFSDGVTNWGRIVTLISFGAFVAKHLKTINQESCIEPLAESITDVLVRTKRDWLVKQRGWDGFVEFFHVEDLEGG
Experimental: (§1) The LUMIER assay was carried out as previously described with the following modifications. A stable cell line expressing receptor tagged on the N-terminus with Nanoluc luciferase was created (the prey). […] Each bait construct was transfected into the receptor-luciferase cells in a 96-well format and after 48 hours the cells were lysed and transferred to 384-well plates coated with anti-FLAG. After incubation and washing, luminescence was measured to quantify how much receptor-luciferase was captured by the bait protein. Anti-Flag ELISA signal was used to exclude bait proteins that were not expressed. The experiment was carried out two times, each in duplicate.

Bcl-xL = target: T2, Bcl-xL (Homo sapiens, UniProt Q07817); assay: LUMIER full-length protein interaction; assay type: binding; settings: LUMIER results for Bcl-xL; for z-score 1.1: experiment 1, duplicate 1; for z-score 1.2: experiment 1, duplicate 2; for z-score 2.1: experiment 2, duplicate 1; for z-score 2.2: experiment 2, duplicate 2
T2 construct: myc-Bcl-xL SPOT array & FP; made in house
T2 sequence (Q07817 with tags, fused parts or gaps): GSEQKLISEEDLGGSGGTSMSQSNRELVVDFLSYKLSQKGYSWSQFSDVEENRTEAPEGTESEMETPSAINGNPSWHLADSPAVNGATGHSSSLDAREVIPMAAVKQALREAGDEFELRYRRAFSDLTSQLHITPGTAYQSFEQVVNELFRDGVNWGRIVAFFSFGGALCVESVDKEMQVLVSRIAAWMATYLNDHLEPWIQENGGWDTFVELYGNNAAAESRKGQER
Experimental: as §1

[1] = Z-score relative to Gaussian fit of the data
[2] = Z-score of the interaction relative to the Gaussian fit of the data

Molecule	z-score 1.2 (Mcl-1)	z-score 2.1 (Mcl-1)	z-score 2.2 (Mcl-1)	z-score 1.1 (Bcl-xL; [1])	z-score 1.2 (Bcl-xL; [1])	z-score 2.1 (Bcl-xL; [1])	z-score 2.2 (Bcl-xL; [1])	z-score 1.1 (Bcl-xL; [2])	z-score 1.2 (Bcl-xL; [2])	z-score 2.1 (Bcl-xL; [2])	z-score 2.2 (Bcl-xL; [2])
CC[C@H](C)[C@H](NC(=O)[C@@H]1CCCN1C(=O)[C@H](CCCNC(=N)N)NC(=O)[C@H](CCCNC(=N)N)NC(=O)[C@@H]1CCCN1C(=O)[C@H](CC(N)=O)NC(=O)[C@H](C)NC(=O)[C@H](CC(C)C)NC(=O)[C@H](CCSC)NC(=O)[C@H](CC(=O)O)NC(=O)[C@H](CO)NC(=O)[C@H](Cc1c[nH]c2ccccc12)NC(=O)[C@H](Cc1c[nH]cn1)NC(=O)[C@H](CCCNC(=N)N)NC(=O)[C@H](CC(C)C)NC(=O)[C@H](CCC(=O)O)NC(=O)[C@H](C)NC(=O)CNC(=O)[C@@H](NC(=O)[C@H](CO)NC(=O)[C@H](CC(N)=O)NC(=O)[C@H](Cc1ccc(O)cc1)NC(=O)CNC(=O)[C@@H](NC(=O)[C@H](Cc1ccccc1)NC(=O)c1ccc2c(c1)C(=O)OC21c2ccc(O)cc2Oc2cc(O)ccc21)C(C)C)[C@@H](C)O)C(=O)N[C@@H](C)C(N)=O [SYT1] (5FAM-FVGYNSTGAELRHWSDMLANPRRPIA-NH2)	-0.6598	0.132	-0.2801	-0.3372	-0.9542	2.574	0.6781				
ACN9 (LQLHRVLPPDLKSLGDQYVKDEFRRH)	0.7914	1.721	2.179	2.487	-0.8795	0.2924	1.441				
ATP6AP2 (RDASKILVDALQKFADDMYSLYGGNA)	0.9409 and 0.8269	2.599 and 2.298	1.567 and 1.468			1.607 and 2.423					
BAK1 (SSTMGQVGRQLAIIGDDINRRYDSEF)	6.48	5.961	6.848					0.8883	2.921	1.064	1.82
BBS10 (RMIVDCVSSHLKKTGDGAKTFIIFLC)		0.6411 and 1.2239		1.141 and 1.702							
BCL2L11 (MRPEIWIAQELRRIGDEFNAYYARRV)	9.774	11.6048	12.4336								
C7orf26 (FDHMVPLVEEINRLADELNPLNASQE)	0.6167	1.59	1.598	0.6785	0.5183	0.5393	0.7734				
CASP8 (PFKKMDFSRNLYDIGEQLDSEDLASL)	-0.8504	-0.06643	-0.03009	0.03556	-1.065	0.3161	-0.06353				
CCDC57 (QAGPVSSGLALRKLGDRVQLLNLLVT)	0.8015	1.282	1.811					2.807	1.916	0.2364	0.8316
COL2A1 (VLLTLLVAAVLRCQGQDVQEAGSCVQ)		1.806	2.677	1.515	-1.523	1.61	2.141				
CTSL2 (SQGKHGFTMAMNAFGDMTNEEFRQMM)	-0.01526	0.02916	-0.562	-0.437	-1.625	0.4619					
CYBB (APEEDFFSIHIRIVGDWTEGLFNACG)	0.6104	-0.8677	-1.447	0.3673	-1.779	0.009756	-0.6661				
CYP2A6 (MPYMEAVIHEIQRFGDVIPMSLARRV)	-0.6263	-0.8736	-1.0005	-0.01422	-0.04633	-0.5606	-0.592				
DHX30 (PVESSWIAPELRLQSDDILPLGKDSG)	0.1736	1.579	0.3173	5.589	0.08513	1.44	1.097				
DPF3 (SCMATVIHNPLKALGDQFYKEAIEHC)	0.1193	-0.01021	-0.07055	4.341	0.09731	0.3964	0.9401				
DSN1 (RAKASSLSEELKHFADGLETDGTLQK)	-0.5012	0.1019	0.2829	-1.115	0.4795	-0.01103	-0.4978				
DZIP3 (NGGLLEFHKSLQEIGDKNDHWFDIDP)	0.5092	0.307	0.2898	0.7197	0.5899	1.027	-0.02772				
EXOC4 (MQTLSELAKSFQDMADRCLLVLHLEV)	-0.5001	0.001659	-1.314	0.7648	-1.829		-0.5885				
FADD (APGEEDLCAAFNVICDNVGKDWRRLA)	0.7662	0.7867		-1.0584	-0.5034	0.7016	0.6909				
FBXL3 (CHGLRELALNYHLLSDELLLALSSEK)	-0.6557	-0.4574	-0.175	-0.4003	-1.2734	2.098	0.0146				
FBXW5 (LTETSLISGNLHRIGDITSCSVLWLN)						1.152 and 2.217					
FOXI1 (PDKRLTLSQIYQYVADNFPFYNKSKA)	0.03188		-0.4966	4.354	-0.599	1.203	1.501				
FUT8 (KKLKNLEGNELQRHADEFLLDLGHHE)	-0.4768	-0.1664	-0.7985	-1.728	-2.609	2.234	-0.644				
GBP6 (NDDTPWIARTLDNLADELTAILSAPA)	0.7158	-0.81	-1.083	0.2217	-0.6971	-0.4961	-0.5692				
HEXDC (VLELHPGAQRLHIGCDEVYYLGEGEA)	-0.6103	-1.0129	-1.44	-0.9348	-0.7792	-0.04647	-0.8049				
IPO5 (SEIMHSFAKCIEVMGDGCLNNEHFEE)	1.584	1.802	1.866	8.932	-0.8907	0.7008	0.6709				
